Measurements as given in publication PMC5029092 (Science signaling, 2011).

Key:
recombinant human TLR2 = recombinant human TLR2 (human, UniProt O60603 21-588); assay: MST
[1] = target: recombinant human TLR4 and MD2 complex (human, UniProt O00206 24-631; Q9Y6Y9 19-160); assay: MST
Chain of recombinant human TLR4 and MD2 complex (O00206 24-631, chain 1 of 2): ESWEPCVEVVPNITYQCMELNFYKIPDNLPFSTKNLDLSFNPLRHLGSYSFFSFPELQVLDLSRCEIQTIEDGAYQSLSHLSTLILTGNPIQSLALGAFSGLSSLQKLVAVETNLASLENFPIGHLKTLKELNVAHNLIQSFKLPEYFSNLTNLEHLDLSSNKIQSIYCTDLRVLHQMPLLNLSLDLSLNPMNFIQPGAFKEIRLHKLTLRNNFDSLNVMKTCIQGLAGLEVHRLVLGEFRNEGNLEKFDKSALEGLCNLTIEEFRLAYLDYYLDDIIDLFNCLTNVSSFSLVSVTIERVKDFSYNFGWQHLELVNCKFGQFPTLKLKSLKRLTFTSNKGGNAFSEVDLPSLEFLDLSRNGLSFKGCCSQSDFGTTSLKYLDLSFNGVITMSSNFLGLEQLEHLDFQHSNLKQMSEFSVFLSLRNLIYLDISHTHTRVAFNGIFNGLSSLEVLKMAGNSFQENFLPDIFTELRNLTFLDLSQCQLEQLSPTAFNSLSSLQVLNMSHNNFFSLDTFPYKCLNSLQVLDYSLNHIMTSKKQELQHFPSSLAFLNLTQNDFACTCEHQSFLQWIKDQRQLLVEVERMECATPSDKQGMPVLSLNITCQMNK
Chain of recombinant human TLR4 and MD2 complex (Q9Y6Y9 19-160, chain 2 of 2): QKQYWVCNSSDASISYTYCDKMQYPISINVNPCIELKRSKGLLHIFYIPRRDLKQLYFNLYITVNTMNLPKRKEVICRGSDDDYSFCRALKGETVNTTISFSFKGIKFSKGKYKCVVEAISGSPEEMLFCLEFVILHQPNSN

Chain of recombinant human TLR2 (O60603 21-588): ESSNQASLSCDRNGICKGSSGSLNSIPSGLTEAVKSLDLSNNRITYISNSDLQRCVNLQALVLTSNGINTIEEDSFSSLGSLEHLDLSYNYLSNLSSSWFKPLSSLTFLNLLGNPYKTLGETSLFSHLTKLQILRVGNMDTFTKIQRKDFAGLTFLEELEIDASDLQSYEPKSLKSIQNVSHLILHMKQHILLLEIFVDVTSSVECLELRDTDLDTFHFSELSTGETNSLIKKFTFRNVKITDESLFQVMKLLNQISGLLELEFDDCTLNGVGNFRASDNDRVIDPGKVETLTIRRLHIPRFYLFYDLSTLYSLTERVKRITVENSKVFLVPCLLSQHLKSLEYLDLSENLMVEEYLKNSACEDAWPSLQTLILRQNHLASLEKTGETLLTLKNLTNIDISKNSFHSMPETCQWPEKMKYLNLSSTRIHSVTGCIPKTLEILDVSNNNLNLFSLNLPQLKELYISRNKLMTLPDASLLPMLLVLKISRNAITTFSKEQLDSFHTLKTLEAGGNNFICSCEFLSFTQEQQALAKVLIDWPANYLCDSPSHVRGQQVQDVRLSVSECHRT

Kd (recombinant human TLR2): 59 ± 10 nM
Kd [1]: 37 ± 5 nM
B1: NT-647-labeled human decorin (natural protein, UniProt P07585 31-359, looked up)
chain: DEASGIGPEVPDDRDFEPSLGPVCPFRCQCHLRVVQCSDLGLDKVPKDLPPDTTLLDLQNNKITEIKDGDFKNLKNLHALILVNNKISKVSPGAFTPLVKLERLYLSKNQLKELPEKMPKTLQELRAHENEITKVRKVTFNGLNQMIVIELGTNPLKSSGIENGAFQGMKKLSYIRIADTNITSIPQGLPPSLTELHLDGNKISRVDAASLKGLNNLAKLGLSFNSISAVDNGSLANTPHLRELHLDNNKLTRVPGGLAEHKYIQVVYLHNNNISVVGSSDFCPPGHNTKKASYSGVSLFSNPVQYWEIQPSTFRCVYVRSAIQLGNYK
modifications: fluorophore NT-647 (Monolith NT protein Labeling Kit)
